In patent US20190248902A1 (published 2019):
Where a chain is given by its changes, count along the chain named.

T1: Human ASGR-2 (human, UniProt P07307 1-311)
T1 construct: Expressed on HEK 293 cells; cDNA GenBank NM_080913.3; also called huASGR-2; hASGR-2
T1 sequence: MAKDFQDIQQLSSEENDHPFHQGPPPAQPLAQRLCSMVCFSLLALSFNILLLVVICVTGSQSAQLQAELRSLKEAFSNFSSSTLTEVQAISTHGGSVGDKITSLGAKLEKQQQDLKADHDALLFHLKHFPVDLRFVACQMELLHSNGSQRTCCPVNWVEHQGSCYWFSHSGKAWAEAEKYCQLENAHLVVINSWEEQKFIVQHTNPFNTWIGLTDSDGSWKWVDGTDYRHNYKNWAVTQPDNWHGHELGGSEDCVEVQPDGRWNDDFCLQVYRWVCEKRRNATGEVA

B1: 194C10 (antibody, V domains shown)
VH: QVQLQQWGAGLLKPSETLSLTCAVSGGSFRYYYWSWIRQPPGKGLEWFGEINHSGSTNYNPSLKSRVTISIDTSKNQFSLKLRSVTAADTAVYYCARDYGAFDIWGQGTMVTVSS
VL: EIVLTQSPGTLSLSPGERATLSCRASPSVNSGYLAWYQQKPGQTPRLLIFGASSRATGIPDRFSASGSGADFTLTISRLEPEDFAVYFCQQYESSPWTFGQGTKVEIK
notes: Tested as hybridoma supernatant at normalized concentration
B2: 7E11 (antibody, V domains shown)
VH: QVQLVESGGGVVQPGRSLRLSCAASGFTFSSFGMHWVRQAPGKGLEWVAIIWHDGSNKYYADSVKGRFTISRDNSNNTLYLQMSSLRAEDTAVYYCARDLSMGGMDVWGQGTTVTVSS
VL: DIQMTQSPSSLSASVGDRVTIACRASQNIISYLNWYQQKPGKAPKFLIYTASSLQSGVPSRFSGSGSGTDFTLTISSLQPEDFAIYYCQQTYSTPLTFGGGTKVEIK
notes: as for B1
B3: 54E9 (antibody, V domains shown)
VH: QVQLVQSGAEVKKPGASVKVSCKASGYTFNSYGISWVRLAPGQGLEWMGWISAYNGNTKNAQKLQGRVTMTTDTSTSTAYMELRSLRSDDTAVYYCARHDFWSGYYKGMDVWGQGTTVTVSS
VL: not shown
notes: as for B1
B4: 202A3 (antibody, V domains shown)
VH: QVQLEQSGAEVKKPGASVKVSCKASGYTFTSYDINWVRQATGQGLEWLGWMNPKRGNTGYAQKFQGRVTMTRNTSISTAHMELSSLRSEDTAVYYCARGRYSREDYYYYYDMDVWGQGTTVTVSS
VL: DIQMSQSPSSLSASVGDRVTITCRASQGIRNDLGWYQQKPGKAPKRLICAASRLQSGVPSRFSGSGSGTEFTLTISSLQPEDFAIYYCLQHHDYPFTFGPGTKVDIK
notes: as for B1
B5: 12D2 (antibody, V domains shown)
VH: EVQLVESGGGLVKPGGSLRLSCAASGFTFSSYSMNWVRQAPGKGLEWVSSISSSSSYIYYADSVKGRFTISRDNAKNSLYLQMNSLRAEDTAVYYCARLGDYWGQGTLVAVSS
VL: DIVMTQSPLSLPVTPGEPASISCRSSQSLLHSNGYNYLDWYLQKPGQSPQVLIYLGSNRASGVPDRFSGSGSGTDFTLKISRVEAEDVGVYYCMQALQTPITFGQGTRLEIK
notes: as for B1
B6: 176H4 (antibody, V domains shown)
VH: QVQLVESGGGVVQPGRSLRLSCAASGFTFSSYGMHWVRQAPGKGLEWVAIIWYDGSYKYYADSVKGRFTISRDNSKNTLYLQMSSLRAEDTAVYYCARDAHDFWSGYFAYWGQGALVTVSS
VL: DIVMTQTPLSLSVTPGQPASISCKSSQSLLHGDGKTYLYWYLQKPGQPPQLLIYEVSNRFSGVPDRFSGSGSGTDFTLKISRVEAEDVGIYYCMQSIQIPWTFGQGTRVEIK
notes: as for B1
B7: 48B12 (antibody, V domains shown)
VH: EVQLLESGGGLVQPGGSLRLSCAASGFTFSSYAMNWVRQAPGKGLEWVSAISGRGGNTFYADSVKGRFTISRDNSKNTLYLQMNSLRAEDTAVYYCAKRETYNWNYEGFDYWGQGTLVTVSS
VL: SYELTQPPSVSVSPGQTARITCSGDALPKKYAYWYQQKSGQAPVLVIYEDSKRPSGIPERFSGSSSGTMATLTISGAQVEDEADYYCNSTDSSGNHVVFGGGTKLTVL
notes: as for B1
B8: 193E7 (antibody, V domains shown)
VH: QVQLQQWGAGLLKPSETLSLTCAVYGGSFSGYFWTWIRQPPGKGLEWIGEINHSGSTNYNPSLKSRVTISVDTSKNQFSLKLSSVTAADTAVYYCARDYGADYWGQGTLVAVSA
VL: DIQMTQSPSSLSASVGDRVTITCRASQGIRNDLGWYQQKPGKAPKRLIYSASSLQRGVPSRFSGSGSGTEFTLTISSLQPEDFATYYCLQHKRYPLTFGGGTKVEIK
notes: as for B1
B9: 7G4 (antibody, V domains shown)
VH: QVQLVESGGGVVQPGRSLRLSCAASGFTFNNYVMHWVRQAPGKGLEWVAVIWYDGSNKYYADSVKGRFTISRDNSKNTLYLQMTSLRAEDTAVYYCAREKYSSNWYDYGMDVWGQGTTVTVSS
VL: B8 VL with K39R, S50A, R56S, F83S, Q90H, H91Q, K92Y, R93S, L96R, G100Q
notes: as for B1
B10: 5E5 (antibody, V domains shown)
VH: B9 VH with N30S, T84N, A97T, K100V, N104G
VL: B8 VL with S50A, R56S, K92Y, R93S, L96R, G100Q, I106V
notes: as for B1
B11: 22G5 (antibody, V domains shown)
VH: EVQLLESGGGLVQPGGSLRLSCAASGFTFSSYAMNWVRQAPGMGLEWVSVISRSGGYTYYADSVKGRFTISRDNSKNTLYLQMNSLRAEDTAVYYCASRLAVAGSEAFDIWGQGTLVTVSS
VL: DIQMTQSPSSLSASVGDRVTITCRASQNISSYLNWYQQKQGKAPKLLIYAASSLQNGVPSRFSGRGSGTDFTLTISSLQPEDFATYYCQQSYRTPLFTFGPGTKVDFK
notes: as for B1
B12: 75G3 (antibody, V domains shown)
VH: QVQLQQWGAGLLKPSETLSLTCAVYGGSLSGSYWSWIRQPPGKGLEWIGEINLSGSTNYNPSLKSRVTISVDTSKSQFSLTLRSVTAADTAVYYCARDYGGLDYWGQGTLVTVSS
VL: EIVLTQSPGTLSLSPGERATLSCRARQNVDSSYLAWYQQKPGQAPRLLIYGASSRATGIPDRFSGSGSGTDFTLTISRLEPEDFAVFYCQQYERSPWTFGQGTKVEIK
notes: as for B1
B13: 190F8 (antibody, V domains shown)
VH: QVQLVESGGGVVQPGRSLRLSCAASGFTFSTYGMHWVRQAPGKGLEWVAVIWYDGSNKNYADSVKGRFTISRDNSKNTLYLQMNSLRAEDTAVYYCARDQGVGYDGLDVWGQGTTVTVSS
VL: DIQMTQSPSSLSASVGDRVTITCRTSQGIGNYLAWFQQKPGKAPKSLLYKASSLQSGVPSKFSGSGSGTDFTLTISSLQPEDFATYYCQQYMTYPLTFGGGTKVEIK
notes: as for B1
B14: 197G3 (antibody, V domains shown)
VH: B13 VH with A23V, T31S, Y32H, Q100P, G101S, L107M
VL: DIQMTQSPSSLSASVGDRVTITCRASQGIGNHLAWFQQKPGKAPKSLIYAASSLQSGVPSKFSGSRSGTDFSLTISSLQPEDFATYYCQQYSNYPVTFGPGTKVDIK
notes: as for B1
B15: 194C1 (antibody, V domains shown)
VH: B13 VH with T31S, K58E, N59H, D99N, Q100R, D105Y
VL: B13 VL with T25A, G30S, L48I, K50A, Q89L, Q90H, M92L
notes: as for B1
B16: 191G10 (antibody, V domains shown)
VH: B13 VH with T31S
VL: B13 VL with N31K, A51V
notes: as for B1
B17: 191G1 (antibody, V domains shown)
VH: B13 VH with T31S, K58E, N59H, Q100R, D105Y
VL: B13 VL with T25A, G30S, L48I, K50A, Q90H, M92L
notes: as for B1
B18: 198G3 (antibody, V domains shown)
VH: B13 VH with R19K, S56T, Y80C
VL: B13 VL with T5A, N31K, S56G
notes: as for B1
B19: 218G4 (antibody, V domains shown)
VH: QVQLVESGGGVVQPGRSLRLSCAASGFTFSSYGLHWVRQAPGKGLEWVAVIWYDGSNKYYADSVKGRFTISRDNSKNTLYLQMNSLRVEDTAVYYCANWYYYYYGMDVWGQGTTVTVSS
VL: QSVLTQPPSVSAAPGQKVTISCSGSSSNIGNNYVSWYQQLPGTAPKLLLYDSNKRPSGIPARFSGSKSGTSATLGITGLQTGDEADYYCGTWDSSLNTVVFGGGTKLTVL
notes: as for B1
B20: 198D2 (antibody, V domains shown)
VH: QVQLVESGGGVVQPGRSLRLSCAASGFTFRSYGMHWVRQAPGKGLEWVAVIIYDGSYKYYADSVKGRFTISRDNSKNTLYLQMNSLRAEDTAVYYCARTYSGGMDVWGQGTTVTVSS
VL: B19 VL with N31S, L47V, L49I, S52N, A61D, S95R, T98V, V99G
notes: as for B1
B21: 25A4 (antibody, V domains shown)
VH: QVLLVQSGAEVKRPGASVKVSCKASGYTFTNYDINWVRQATGQGLEWMGWMYPNSGNTGYAQKFQGRVTMTRNTSISTAYMELSSLRSEDTAVYYCASSSGWYYFDYWGQGTLVTVSS
VL: DIVMTQFPDSLAVSLGERATIKCKSSQSVLYSSHNNNYLAWYQQKPGQPPKLLLYWASTRESGVPDRFSGSGSGTEFTLTISSLEAEDVAVYYCQQYYSTPPTFGQGTKVEIK
notes: as for B1
B22: 26C4 (antibody, V domains shown)
VH: B21 VH with L3Q, R13K, T41S, Y52N, K63R, S77N
VL: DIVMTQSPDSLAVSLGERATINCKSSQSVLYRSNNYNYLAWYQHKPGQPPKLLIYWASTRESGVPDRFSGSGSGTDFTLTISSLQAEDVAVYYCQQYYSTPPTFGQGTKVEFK
notes: as for B1

Target: T1, Human ASGR-2
Experiment: FACS on transfected HEK 293 cells; binding = signal at least 2x irrelevant IgG
Procedure: Human ASGR-1-specific, ligand competing antibody samples were tested for binding to ASGR-1 from other species (cynomologus monkey ASGR-1, mouse ASGR-1, rat ASGR-1, dog ASGR-1, and pig ASGR-1) as well as to human ASGR-2 in FACS binding assays at normalized antibody concentrations. For cell-based assays, HEK 293 cells expressing the appropriate antigen of interest were mixed with antibody sample or controls, incubated for 1 hour at 4° C., and then washed twice. Cells with bound antibody were then incubated with Alexa Fluor® 647 IgG Fc fragment-specific detection antibody and 7-AAD viability stain for 15 minutes at 4° C., washed once and resuspended in FACS buffer. Samples were analyzed using a BD Accuri™ Flow Cytometer and an Intellicyt HyperCyt Autosampler. As a negative control, supernatants and controls were also screened against HEK 293 cells transfected with empty parental vector. […] For membrane-prep binding assays, ASGR-1 species specific membrane preps were used to coat LumAvidin® microspheres (beads) and tested for binding to selected hybridoma supernatants or controls. Briefly, ASGR-1 species specific membrane preps were incubated with streptavidin-coated LumAvidin® beads for 45 minutes in the dark at room temperature and washed twice. Beads were resuspeneded in FACS buffer containing Stabilguard®. Antigen-bound beads were then incubated with normalized antibody sample for 1 hour in the dark at room temperature, washed twice, incubated with Alexa Fluor® 488 IgG Fc fragment-specific detection antibody for 15 minutes in the dark at room temperature, washed once and finally resuspended in FACS buffer. Samples were analyzed using an Intellicyt iQue™ Screener Platform. FACS buffer supplemented with 1 mM Calcium Chloride was used in all steps. As a negative control, supernatants and controls were also screened against a non-ASGR-1 antigen membrane prep coated on the LumAvidin® beads.

binding result | Binder
no binding | B1
no binding | B2
no binding | B3
no binding | B4
no binding | B5
no binding | B6
no binding | B7
no binding | B8
no binding | B9
no binding | B10
no binding | B11
no binding | B12
no binding | B13
no binding | B14
no binding | B15
no binding | B16
no binding | B17
no binding | B18
no binding | B19
no binding | B20
no binding | B21
no binding | B22
